The record followed here is patent US20100129347A1 (OSAKA UNIVERSITY, published 2010).

For assay [1], the target named is T1, glycoprotein B (gB) of HSV-1 (HSV-1, UniProt P06436 30-903).
T1 construct: also called protein of 110 kDa; PILR-recognizing ligand
Description: immunoprecipitation from lysate of HSV-1-infected 293T cells, SDS-PAGE, silver stain.

Assay [2] deals with T2, FLAG-tagged extracellular region of gB (29th to 720th amino acids) with transmembrane and intracellu (HSV-1; mouse, UniProt P06436 29-720).
T2 construct: also called cell expressing gB; cells to which gB had been transfected
The experiment in a line: flow cytometry on transfected 293T cells.

B1: human CD200-Ig fusion protein (Fc fusion)
chain: QVQVVTQDEREQLYTPASLKCSLQNAQEALIVTWQKKKAVSPENMVTFSENHGVVIQPAYKDKINITQLGLQNSTITFWNITLEDEGCYMCLFNTFGFGKISGTACLTVYVQPIVSLHYKFSEDHLNITCSATARPAPMVFWKVPRSGIENSTVTLSHPNGTTSVTSILHIKDPKNQVGKEVICQVLHLGTVTDFKQTVNKG
notes: Control for PILR-Ig; also called control Ig; not shown: Ig part not described
Turning to B1, the binding result in assay [1] is “no binding”.

B2: HVEM-Ig (Fc fusion)
chain: LPSCKEDEYPVGSECCPKCSPGYRVKEACGELTGTVCEPCPPGTYIAHLNGLSKCLQCQMCDPAMGLRASRNCSRTENAVCGCSPGHFCIVQDGDHCAACRAYATSSPGQRVQKGGTESQDTLCQNCPPGTFSPNGTLEECQHQTKCSWLVTKAGAGTSSSHWV
notes: not shown: Ig part not described
Turning to B2, the binding result in assay [2] is “no binding”.
